# Data published in US20240317846A1 (priority 2021, published 2024).
# Where “and” joins values, the source holds several entries; their conditions need not be identical. Equal entries are not always repeated. Entries after “also recorded” stand apart in the source; their conditions may differ. Where two headings read alike, the source gives them in different places. Marks after values point to notes of the source that are not given here.
# Experiments:
# [1] = system: COVID-19; settings: non-significant trend; cited from earlier work
# [2] = system: COVID-19; settings: cited from earlier work
# [3] = system: COVID-19; settings: RECOVERY trial; cited from earlier work
# [4] = system: COVID-19; settings: cited from earlier work; for Mean days to discharge: published cohorts; for Median days to discharge: published lopinavir-ritonavir cohort
# [5] = system: severe COVID-19 pneumonia
# [6] = Four completed clinical trials (healthy volunteers, asthma, rheumatoid arthritis, chronic myelomonocytic leukemia); assay type: in vivo, human; settings: 113 individuals received lenzilumab
# [7] = system: COVID-19 associated chronic ARDS; assay type: in vivo, human
# Protocol: Hospitalized subject with confirmed COVID-19 pneumonia and established risk factors for poor outcomes was treated in the ICU for 12 weeks using standard supportive care for chronic acute respiratory distress syndrome (ARDS). […] Patient characteristics, clinical and laboratory outcomes, and adverse events were recorded through duration of hospitalization.
# [8] = system: severe and critical COVID-19 pneumonia
# [9] = system: SARS-CoV-2 infection; assay type: in vivo, human; settings: paper examples
# [10] = system: severe COVID-19 pneumonia; settings: for Time to Recovery: placebo 8
# [11] = target: glycosylated human GM-CSF (Homo sapiens, UniProt P04141); assay: Binding affinity for GM-CSF
# [12] = system: COVID-19 pneumonia
# [13] = Pre-clinical toxicology program; assay type: in vivo; settings: data not shown
# [14] = Lenzilumab group n = 12, control 11
# [15] = one patient, 48 hours post-lenzilumab vs pretreatment
# [16] = repeated measures ANOVA, P<0.001
# [17] = lenzilumab alone or in the combination of the example
# Chain of glycosylated human GM-CSF (P04141 18-144): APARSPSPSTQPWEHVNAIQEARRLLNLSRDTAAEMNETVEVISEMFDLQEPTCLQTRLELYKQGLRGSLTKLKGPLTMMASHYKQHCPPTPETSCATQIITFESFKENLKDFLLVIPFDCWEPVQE
molecule,measurement,setting,value
Mavrilimumab: monoclonal antibody that acts as a GM-CSF alpha-receptor antagonist,Improvement in survival without requirement for supplemental oxygen,[1],48%
Otilimab: monoclonal antibody targeting circulating GM-CSF,Subjects alive and free of respiratory failure at 28 days,"[2]; pre-planned analysis, subjects aged at least 70 years, standard of care 45.9%",65.1%
same,Primary endpoint (proportion alive and free of respiratory failure 28 days),[2]; whole population,not meet its primary endpoint
Tocilizumab: anti-IL6 receptor monoclonal antibody,Increased likelihood of survival,[3],14%
same,Increased likelihood of survival without IMV,[3],18%
same,"Survival, Hazard Ratio",[3],1.14
same,"Ventilator-Free Survival, Hazard Ratio",[3],1.18
same,Range of days to discharge,[4]; 2 patients not discharged,(10-19)* days
same,Mean days to discharge,[4],13.5 days
lopinavir and ritonavir [Lopinavir/Ritonavir],Mean days to discharge,[4],13 days
same,Median days to discharge,[4],13** days
same,Median days to discharge,[4]; listed as Lopinavir-Ritonavir,13 days
"Lenzilumab: first-in-class Humaneered recombinant monoclonal antibody targeting human GM-CSF, derived from mouse antibody LMM102 (antibody, chains of the INN, looked up, V domains shown) VH: QVQLVQSGAEVKKPGASVKVSCKASGYSFTNYYIHWVRQAPGQRLEWMGWINAGNGNTKYSQKFQGRVTITRDTSASTAYMELSSLRSEDTAVYYCVRRQRFPYYFDYWGQGTLVTVSS VL: EIVLTQSPATLSVSPGERATLSCRASQSVGTNVAWYQQKPGQAPRVLIYSTSSRATGITDRFSGSGSGTDFTLTISRLEPEDFAVYYCQQFNKSPLTFGGGTKVEIK",Infusion reactions,[5]; 12 patients,no infusion reactions
same,Treatment-emergent adverse events attributable to lenzilumab,[5]; 12 patients,No treatment-emergent adverse events attributable to lenzilumab
same,Ventilator-free survival vs untreated group,"[5]; Kaplan-Meier, log-rank P=0.06",favored the lenzilumab cohort
same,Days to resolution of fever,[5]; Lenzilumab group n = 12,2 days
same,Incidence of IMV,[5]; Lenzilumab group n = 12,(8%)
same,"Incidence of IMV and/or death, number of patients",[5]; Lenzilumab group n = 12,1
same,"Incidence of IMV, number of patients",[5]; Lenzilumab group n = 12,1
same,"Incidence of clinical improvement, number of patients",[5]; Lenzilumab group n = 12,11
same,Incidence of death,[5]; Lenzilumab group n = 12,(8%)
same,"Incidence of death, number of patients",[5]; Lenzilumab group n = 12,1
same,Patients free of ARDS (SpO2/FiO2 of 315 or higher) by the end of observation,[5]; Lenzilumab group n = 12,92%
same,Days to clinical improvement (median),[5]; [14],5 days
same,Days to discharge from hospital (median),[5]; [14],5 days
same,CRP reduction (mean),"[5]; after 4 days of treatment, control −0.95",135.8
same,IL-6 concentration on day 4 following lenzilumab,[5]; baseline 28.6 pg/mL,8.52 pg/mL
same,Mean absolute neutrophil count on day 4 post lenzilumab,[5]; baseline 5.1,4.8e+09 L⁻¹
same,Mean hemoglobin on day 4 post lenzilumab,[5]; baseline 12.9,11.4 g/dL
same,IL-6 reduction,[5]; baseline vs day 4,20.1
same,ALC increase (mean),"[5]; baseline vs day 4, control 0.03",0.46 × 10*9/L
same,Mean temperature reduction,"[5]; baseline vs day 4, control 0.459",1.075
same,PLT increase (mean),"[5]; baseline vs day 4, control 63.2",52.5
same,Mean CRP after treatment,"[5]; day 4, baseline 172.2 mg/L",36.4 mg/L
same,Cytokines and chemokines involved in the cytokine storm,[5]; [15],significant reduction
same,Mean SpO2/FiO2 over time post-treatment vs untreated,[5]; [16],statistically significant difference
same,Proportion of patients free of ARDS over time vs untreated,[5]; [16],significantly increased
same,Safety in completed clinical development studies,[6],No treatment emergent serious adverse events (SAEs) or Suspected Unexpected Serious Adverse Reactions (SUSARSs); also recorded: very well tolerated
same,Oxygen demand one week post lenzilumab,"[7]; person, lenzilumab on week 13 of hospitalization",decreased from high-flow to low-flow nasal cannula
same,Infusion-related or systemic side effects,[7]; single patient,No infusion-related or systemic side effects
same,Lymphopenia post lenzilumab,[7]; single patient,appeared to improve
same,Time from lenzilumab to discharge home,"[7]; single patient, discharged on 4L nasal cannula",Sixteen
same,Median time to discharge post-lenzilumab,[8]; 11 discharged patients,5 days
same,Infusion reactions,[8]; 12 patients,no infusion reactions
same,Median time to a 2-point clinical improvement,[8]; 12 patients,5 days
same,Patients discharged,[8]; 12 patients,11 of 12
same,Patients discharged on home oxygen,[8]; 12 patients,42%
same,Patients who required invasive mechanical ventilation,[8]; 12 patients,8.3%
same,"Clinical improvement of at least 2 points on the 8-point ordinal clinical endpoints scale, proportion of patients","[8]; 12 patients, 600 mg IV every 8 h x3",92% and 91.7%
same,Mean IL-6 on day 3 following lenzilumab,[8]; baseline 26.8 pg/mL,16.1 pg/mL
same,Mean CRP on day 3 following lenzilumab,[8]; baseline 137.3 mg/L,51.2 mg/L
same,Absolute lymphocyte count on day 3,[8]; baseline 0.89,1.14e+09 L⁻¹
same,Mean absolute neutrophil count on day 3 post lenzilumab,[8]; baseline 5.1,4.8e+09 L⁻¹
same,Mean hemoglobin on day 3 post lenzilumab,[8]; baseline 12.9,11.4 g/dL
same,Mean temperature at day 3,[8]; baseline 37.95,36.97
same,Proportion of patients with SpO2/FiO2<315 at the end of observation,[8]; baseline 67%,8%
same,Mean platelet count on day 3 post lenzilumab,[8]; baseline 217.7,2.618e+11 L⁻¹
same,D-dimer after lenzilumab,[8]; individual patients 2 and 4,1507 ng/mL and 1802 ng/mL
same,"Ferritin after lenzilumab, at discharge",[8]; individual patients 3 and 5,571 µg/L and 1223 µg/L
same,Patients whose SpO2/FiO2 improved to >315 on day 1 post-lenzilumab,[8]; of 8 patients with SpO2/FiO2<315 at baseline,four
same,Patients with a 2-point improvement on 8-point ordinal scale,[8]; of 12 patients,1 patient
same,Patients with ≥3-point improvement on 8-point ordinal scale,[8]; of 12 patients,10 patients
same,"Cytokines involved in cytokine storm (G-CSF, MDC, GM-CSF, IL-1α, IFN-γ, IL-7, FLT-3L, IL-1rα, IL-6, IL-12p70)",[8]; [15],significant reduction
same,LDH after lenzilumab,"[8]; patient 4, hospital day 3",388 U/L
same,Range of days to discharge,[8]; patient 9 pending,(3-14)*** days
same,Patients requiring mechanical invasive ventilation,[8]; patients 1-5,None
same,Time to fever resolution after lenzilumab administration,[8]; patients febrile at baseline,≤ 48 h
same,"Time to clinical two point improvement, faster than comparator antivirals","[8]; vs Remdesivir, Lopinavir-Ritonavir, Tocilizumab cohorts",more than 50%
same,2 point improvement in the NIAID eight point ordinal hospital scale,[9],faster
same,Number of hospital days,[9],reduction
same,Permanent pulmonary function impairment,[9],reduction
same,"Time to recovery (6, 7, or 8 on the eight point ordinal hospital scale)",[9],faster
same,Mortality rates,[9]; [17],reduction
same,Patients requiring ICU admission,[9]; [17],reduction
same,Patients requiring mechanical ventilation,[9]; [17],reduction
same,Acute kidney injury,"[10]; Grade ≥3, Lenzilumab N = 255",5 (2.0) n (%)
same,Acute respiratory distress syndrome,"[10]; Grade ≥3, Lenzilumab N = 255",4 (1.6) n (%)
same,Acute respiratory failure,"[10]; Grade ≥3, Lenzilumab N = 255",18 (7.1) n (%)
same,Cardiac arrest,"[10]; Grade ≥3, Lenzilumab N = 255",8 (3.1) n (%)
same,Cardiac disorders,"[10]; Grade ≥3, Lenzilumab N = 255",15 (5.9) n (%)
same,Cardio-respiratory arrest,"[10]; Grade ≥3, Lenzilumab N = 255",3 (1.2) n (%)
same,General disorders and administration site conditions,"[10]; Grade ≥3, Lenzilumab N = 255",4 (1.6) n (%)
same,Hypotension,"[10]; Grade ≥3, Lenzilumab N = 255",2 (0.8) n (%)
same,Hypoxia,"[10]; Grade ≥3, Lenzilumab N = 255",15 (5.9) n (%)
same,Infections and infestations,"[10]; Grade ≥3, Lenzilumab N = 255",10 (3.9) n (%)
same,Multiple organ dysfunction syndrome,"[10]; Grade ≥3, Lenzilumab N = 255",3 (1.2) n (%)
same,Pneumonia bacterial,"[10]; Grade ≥3, Lenzilumab N = 255",0 (0.0) n (%)
same,Pulmonary embolism,"[10]; Grade ≥3, Lenzilumab N = 255",5 (2.0) n (%)
same,Renal and urinary disorders,"[10]; Grade ≥3, Lenzilumab N = 255",5 (2.0) n (%)
same,Respiratory failure,"[10]; Grade ≥3, Lenzilumab N = 255",24 (9.4) n (%)
same,"Respiratory, thoracic and mediastinal disorders","[10]; Grade ≥3, Lenzilumab N = 255",64 (25.1) n (%)
same,Sepsis,"[10]; Grade ≥3, Lenzilumab N = 255",2 (0.8) n (%)
same,Septic shock,"[10]; Grade ≥3, Lenzilumab N = 255",5 (2.0) n (%)
same,Shock,"[10]; Grade ≥3, Lenzilumab N = 255",3 (1.2) n (%)
same,Vascular disorders,"[10]; Grade ≥3, Lenzilumab N = 255",10 (3.9) n (%)
same,Kaplan-Meier Estimate of Failure to Achieve SWOV,[10]; ITT (n = 520),18.9%
same,Kaplan-Meier Estimate of Failure to Achieve SWOV,"[10]; ITT subgroup n = 338, placebo 27.8%",17.8%
same,Kaplan-Meier Estimate of Failure to Achieve SWOV,"[10]; ITT, CRP <150 mg/L and age <85 (n = 359), placebo 22.6%",11.5%
same,Safety and tolerability,[10]; LIVE-AIR,safe and well tolerated
same,Any AE ≥ Grade 3,[10]; Lenzilumab N = 255,68 (26.7) n (%)
same,Serum CRP levels following treatment,"[10]; from two days after administration for 28 days, only in baseline CRP<150 mg/L",decreased CRP levels
same,Attributable serious adverse events,"[10]; incl. hematologic, liver enzyme abnormalities, pulmonary alveolar proteinosis, infection",no attributable serious adverse events
same,Time to Recovery,[10]; mITT (n = 236),8 median days
same,Mortality,"[10]; mITT (n = 236), placebo 13.9",9.6%
same,"Incidence IMV, ECMO or death","[10]; mITT (n = 236), placebo 21.4",15.4%
same,Kaplan-Meier Estimate of Failure to Achieve SWOV,"[10]; mITT (n = 479), Day 28, placebo 22.1%",15.6%
same,Kaplan-Meier Estimate of Failure to Achieve SWOV,"[10]; mITT subgroup n = 331 (remdesivir plus steroids per text), placebo 26.9%",16.3%
same,Kaplan-Meier Estimate of Failure to Achieve SWOV,"[10]; mITT, >2 days prior (n = 165), placebo 14.4%",13.7%
same,Kaplan-Meier Estimate of Failure to Achieve SWOV,"[10]; mITT, CRP <150 mg/L and age <85 (n = 336), placebo 21.1%",8.5%
same,Time to Recovery,"[10]; mITT, CRP <150 mg/L, Age <85 (n = 157)",7 median days
same,Mortality,"[10]; mITT, CRP <150 mg/L, Age <85 (n = 157), placebo 13.8",6.6%
same,"Incidence IMV, ECMO or death","[10]; mITT, CRP <150 mg/L, Age <85 (n = 157), placebo 19.5",7.2%
same,Improvement in Time to Recovery,"[10]; mITT, CRP<150 mg/L and age<85",36%
same,Kaplan-Meier Estimate of Failure to Achieve SWOV,"[10]; mITT, hospitalized 2 days prior or less (n = 297), placebo 27.6%",16.5%
same,Infusion-related reactions,[10]; safety population,no infusion-related reactions
same,"Serious adverse events, subjects","[10]; safety population, placebo 29.6%",24.7%
same,"Adverse events ≥Grade 3, subjects","[10]; safety population, placebo 32.7%",26.7%
same,Improvement in SWOV,[10]; subjects hospitalized <2 days,88%
same,Binding affinity,[11],picomolar range
same,Kd,[11],0.025 nM
same,Off-rate,[11],slow off-rate
same,"Survival, Kaplan-Meier event estimate (mortality)","[12]; mITT, lenzilumab arm, day 28, placebo 13.9",9.6%
same,"Ventilator-Free Survival, Kaplan-Meier event estimate (IMV and/or death)","[12]; mITT, lenzilumab arm, day 28, placebo 22.1",15.6%
same,SAEs attributed to lenzilumab,[12]; phase 3 trial,none were attributed to lenzilumab
same,Safety and tolerability,[12]; phase 3 trial,safe and well-tolerated
same,Increased likelihood of survival without IMV,"[12]; relative to placebo, mITT",54%
same,Increased likelihood of survival,"[12]; relative to placebo, not statistically significant",39% (NS)
same,No Observed Adverse Effect Level (NOAEL),[13],> 100 mg/kg/week
